# In article PMC6041257:
# B1: GLI1 (transfected, wild type) [human] / SUFU (transfected, HEK293T) [not stated] (parent)
# chain 1: MFNSMTPPPISSYGEPCCLRPLPSQGAPSVGTEGLSGPPFCHQANLMSGPHSYGPARETNSCTEGPLFSSPRSAVKLTKKRALSISPLSDASLDLQTVIRTSPSSLVAFINSRCTSPGGSYGHLSIGTMSPSLGFPAQMNHQKGPSPSFGVQPCGPHDSARGGMIPHPQSRGPFPTCQLKSELDMLVGKCREEPLEGDMSSPNSTGIQDPLLGMLDGREDLEREEKREPESVYETDCRWDGCSQEFDSQEQLVHHINSEHIHGERKEFVCHWGGCSRELRPFKAQYMLVVHMRRHTGEKPHKCTFEGCRKSYSRLENLKTHLRSHTGEKPYMCEHEGCSKAFSNASDRAKHQNRTHSNEKPYVCKLPGCTKRYTDPSSLRKHVKTVHGPDAHVTKRHRGDGPLPRAPSISTVEPKREREGGPIREESRLTVPEGAMKPQPSPGAQSSCSSDHSPAGSAANTDSGVEMTGNAGGSTEDLSSLDEGPCIAGTGLSTLRRLENLRLDQLHQLRPIGTRGLKLPSLSHTGTTVSRRVGPPVSLERRSSSSSSISSAYTVSRRSSLASPFPPGSPPENGASSLPGLMPAQHYLLRARYASARGGGTSPTAASSLDRIGGLPMPPWRSRAEYPGYNPNAGVTRRASDPAQAADRPAPARVQRFKSLGCVHTPPTVAGGGQNFDPYLPTSVYSPQPPSITENAAMDARGLQEEPEVGTSMVGSGLNPYMDFPPTDTLGYGGPEGAAAEPYGARGPGSLPLGPGPPTNYGPNPCPQQASYPDPTQETWGEFPSHSGLYPGPKALGGTYSQCPRLEHYGQVQVKPEQGCPVGSDSTGLAPCLNAHPSEGPPHPQPLFSHYPQPSPPQYLQSGPYTQPPPDYLPSEPRPCLDFDSPTHSTGQLKAQLVCNYVQSQQELLWEGGGREDAPAQEPSYQSPKFLGGSQVSPSRAKAPVNTYGPGFGPNLPNHKSGSYPTPSPCHENFVVGANRASHRAAAPPRLLPPLPTCYGPLKVGGTNPSCGHPEVGRLGGGPALYPPPEGQVCNPLDSLDLDNTQLDFVAILDEPQGLSPPPSHDQRGSSGHTPPPSGPPNMAVGNMSVLLRSLPGETEFLNSSA
# chain 2: MAELRPSGAPGPTAPPAPGPTAPPAFASLFPPGLHAIYGECRRLYPDQPNPLQVTAIVKYWLGGPDPLDYVSMYRNVGSPSANIPEHWHYISFGLSDLYGDNRVHEFTGTDGPSGFGFELTFRLKRETGESAPPTWPAELMQGLARYVFQSENTFCSGDHVSWHSPLDNSESRIQHMLLTEDPQMQPVQTPFGVVTFLQIVGVCTEELHSAQQWNGQGILELLRTVPIAGGPWLITDMRRGETIFEIDPHLQERVDKGIETDGSNLSGVSAKCAWDDLSRPPEDDEDSRSICIGTQPRRLSGKDTEQIRETLRRGLEINSKPVLPPINPQRQNGLAHDRAPSRKDSLESDSSTAIIPHELIRTRQLESVHLKFNQESGALIPLCLRGRLLHGRHFTYKSITGDMAITFVSTGVEGAFATEEHPYAAHGPWLQILLTEEFVEKMLEDLEDLTSPEEFKLPKEYSWPEKKLKVSILPDVVFDSPLH
# Variants of: B1
# Assay: co-immunoprecipitation (IP: HA (SUFU-HA), IB: Flag (GLI1-Flag))
# Conditions: with SUFU (transfected, HEK293T); HEK293T cells; SUFU-HA + GLI1-Flag + MEKK3-Flag co-expressed; parent: 3
row,screen value,Variant
1,3.9,chain 1 S201D S204D S243D S968D T1074D S1078D

# Same assay, conditions: with SUFU (transfected, HEK293T); HEK293T cells; SUFU-HA + GLI1-Flag + Vector (no MEKK3); parent: 1
row,ratio to parent,Variant
1,3,chain 1 S201D S204D S243D S968D T1074D S1078D
